Source: the supplement of paper PMC12042874
± gives the uncertainty stated by the source.

assay: amyloid nucleation score (Sup35N fusion, yeast selection) (log enrichment); library NNK2; higher = more nucleation; inactive = no reads after selection
In short: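 Growth for 7 days at 30°C on medium lacking adenine and uracil followed a 24-hour induction with 100 μM copper sulfate of psi-negative yeast expressing peptides of 20 random codons fused to Sup35N. Input and output plasmid inserts were sequenced with Illumina, and sequences with under 100 input reads were excluded. Nucleation score is the DiMSum log enrichment of output over input reads, centred on the mode score of non-aggregating sequences.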

Substance	amyloid nucleation score
GFLFMVMRSQLRCVYINKY	1.61 ± 0.15
GFLNLCRSTSRELMCEMYSA	-0.651 ± 1.1
GFMFVFWKFKHGLMGPCSRD	0.684 ± 0.23
GFRFSVIGI	-0.101 ± 0.63
GFSRRGELHVSVYHIRDNVR	-1.11 ± 1.1
GFTLEAKDWSTG	0.778 ± 0.43
GFVDELLNKRRLMCLIKTWK	0.179 ± 0.44
GGDDVEDMYALGPNFFEGG	0.627 ± 0.66
GGDLNHHFAWTTNKMHDERR	4.537 ± 0.038
GGERMRSRKYEYGGWNMCYY	inactive
GGGAAPNPTDYKSILLLC	0.17 ± 0.34
GGMLPYVVITFETFMPRCMN	-1.7 ± 0.75
GGMVVPGKYRDRGY	-0.227 ± 0.26
GGTSLRNTLGICLNYLQS	inactive
GGVIVQYLPFSNYLRKQGSL	-0.304 ± 0.39
GGYSLWF	0.292 ± 0.23
GHIMKCGATRQYHCEDP	-0.614 ± 0.79
GHMQYSYFLDLYSKLFCVFN	4.52 ± 0.062
GHNATNVGHIMFFITTWCCY	8.955 ± 0.047
GHSCLMVNNACSLDGHEESV	1.16 ± 0.39
GIGAQINHSVPLRGGKPRAL	-0.406 ± 1.1
GIKYRSQCGCASDVCIKCRS	-0.054 ± 1.1

Substance	amyloid nucleation score
GINRKDKMSKCTDLVVFCLG	-0.076 ± 0.33
GINVSYLFIPHVGKICGNYN	7.151 ± 0.047
GIQVNYRWLGFGVGKRKARL	5.547 ± 0.043
GISCYLRVHTSANDESCSER	0.426 ± 0.8
GISCYMAPSGCRHNSVMSLW	0.611 ± 0.5
GIVVFINEMLTNTNPGKS	6.954 ± 0.039
GIYGSGIAFRRSGGWWEVCS	inactive
GIYNVLS	-0.108 ± 1.1
GKFLCDV	0.775 ± 0.31
GLAEYRS	-0.488 ± 0.64
GLFVRQGGLRVCWVLPVHAA	0.645 ± 0.41
GLLGAVDRTVR	0.238 ± 0.56
GLLKTQ	-0.087 ± 0.31
GLLTGITILIVVDSCLGVCF	3.99 ± 0.095
GLLVLLLETCWKLVSFDLRK	0.561 ± 0.39
GLLVSGMINWYRVFIRNILL	-0.606 ± 0.38
GLMAWR	0.154 ± 0.37
GLNVHVVRLGIQLFFKWNDI	1.74 ± 0.18
GLNVLCSLAIKAKLDGRWRH	9.371 ± 0.072
GLRELS	-0.874 ± 0.55
GLSLLRGTNSGSAARLGANG	0.452 ± 0.32
GLTVHTVWLA	0.189 ± 0.4

Substance	amyloid nucleation score
GLVRPLSLMVETANAVHG	1.39 ± 0.35
GMDSFPFCMCRDCPYWGYDM	-0.745 ± 0.32
GMLEGCRHHGIGWKGYACGQ	2.94 ± 0.087
GMSQAIVGVICSGIYLPEVR	0.44 ± 0.37
GMSYGESWIGTNLAGRVRAL	1.29 ± 0.31
GNGRHC	-0.021 ± 0.21
GNIMSFSFMPDLGISFCPGC	6.515 ± 0.049
GNKMGCLFIGYCGFCTTVRP	1.74 ± 0.15
GNLVC	0.821 ± 0.19
GNRDSLNMFVCDRILRCPVQ	-0.273 ± 0.33
GNRFPRPSPQGIIYKLLLFR	2.92 ± 0.11
GNTGCGVRACSGVCGKMDLV	0.8 ± 0.27
GNVGTRPQINTGSVCYMSCI	4.6 ± 0.057
GNVLTVIKAKDGS	-0.606 ± 0.49
GNWMRYIFSKWARLWGWKTY	inactive
GNYISICESFF	-0.177 ± 1
GPIWCRS	-0.467 ± 0.74
GPLLVIWVRTLGRELG	0.841 ± 0.26
GPWAAVVRGFCPKGDKRSCG	-0.304 ± 0.41
GRASMRACWVKMFYWFW	0.981 ± 0.18
GRDPGNDEIDKLALSWRLMG	0.657 ± 0.32
GRKISNCCQCWCHGL	7.72 ± 0.042

Substance	amyloid nucleation score
GRKLMWSRF	0.004 ± 0.45
GRNPVFWWQVLVATSRLNGQ	1.05 ± 0.32
GSASLCNSAERVYV	0.681 ± 0.55
GSDQNSCELSRRDIKKCMAL	0.504 ± 0.33
GSELMTSLSFVCGHVAAPAD	0.669 ± 0.54
GSEMIFYIAVVALCLCIPEG	1.21 ± 0.22
GSGNPGMSIFVKIY	-1.16 ± 0.62
GSGSVAEIMRNVFLVCSW	-0.115 ± 0.34
GSLAGAKL	-0.588 ± 0.76
GSLGASVSNFGVAYSLCATR	-0.359 ± 0.65
GSLMHEFAH	-0.698 ± 0.78
GSMITCFVSDTLYKTVMVKL	0.373 ± 0.54
GSPWGSHGRHGLKHTKALKA	1.1 ± 0.25
GTFKDGMDSA	3.75 ± 0.14
GTLFIRSPYFCL	-0.478 ± 0.61
GTMLMGVE	0.449 ± 0.8
GTRYLRVSFNCAVRV	1.22 ± 0.69
GTSWTVTID	0.537 ± 0.18
GTTVMGGILVLDGQALIGSM	1.06 ± 0.28
GVASMSRRARSHKMGGWMGR	1.05 ± 0.41
